Laboratory results reported in US20140302043A1.

Biological target: hemagglutinin (HA) of H1N1 virus strain A/Brazil/1403/2003 (influenza A virus H1N1, A/Brazil/1403/2003)
Assay: cell-based or functional assay

Row | Substance | mAb minimum effective concentration (EC99, microneutralization on MDCK cells) [µg/mL]
1 | mAb CH65, recombinant intact IgG1 (antibody) | 3.12
2 | mAb CH67 (antibody) | 0.195
